{"source": "the DeepSol protein solubility set"}
{"assay": "soluble on expression in E. coli; label from the status in PepcDB or PDB records"}
{"sequence": "MSKPLPLVTRQGDRIVIVNGLRTPFAKQATAYHGVPAVDLGKIVVSELLARSGISSELIDQLVFGQVVQMPEAPNIAREIVLGTGMSVHTDAYSVSRACATSFQAVANVAESIIAGSVDIAIAGGADSSSVLPIGVSKALARTLVDANKARSLSQKLKLFSRLRLRDLLPVAPAVAEYSTGLRMGDTAEQMAKTYGISREDQDALALRSHQLAAEAWQQGWLHDEVMTAYIPPYREAIIEDNNIRKDSTLAQYAKLRPAFDRQHGSVTAANSTPLTDGAAAVLMMSESKAKALGLPPLGYLRSFAFSAIDVWQDMLLGPSYATPLALDRAGITLADLTLIDMHEAFAAQTLANLKMFASDTFAREKLGRSQAIGEVDMSKFNVLGGSIAYGHPFAATGARMITQTLNELRRRGGGLGLTTACAAGGLGAAMILEVE", "soluble on expression in E. coli": "not soluble"}
{"sequence": "MSKRILFIVGSFSEGSFNRQLAKKAETIIGDRAQVSYLSYDRVPFFNQDLETSVHPEVAHAREEVQEADAIWIFSPVYNYAIPGPVKNLLDWLSRSLDLSDPTGPSVLQDKIVTVSSVANGASPEEVFEDYRSLLPFIRMHLVDQLTGVPINSEAWSTGILKVSAEKLAELSAQADALLSAIENLEHHHHHH", "soluble on expression in E. coli": "soluble"}
{"sequence": "MSKSNQKIASIEQLSNNEGIISALAFDQRGALKRMMAKHQTEEPTVAQIEQLKVLVAEELTQYASSILLDPEYGLPASDARNKDCGLLLAYEKTGYDVNAKGRLPDCLVEWSAKRLKEQGANAVKFLLYYDVDDAEEINIQKKAYIERIGSECVAEDIPFFLEVLTYDDNIPDNGSVEFAKVKPRKVNEAMKLFSEPRFNVDVLKVEVPVNMKYVEGFAEGEVVYTKEEAAQHFKDQDAATHLPYIYLSAGVSAELFQETLKFAHEAGAKFNGVLCGRATWSGAVQVYIEQGEDAAREWLRTTGFKNIDDLNKVLKDTATSWKQRK", "soluble on expression in E. coli": "soluble"}
{"sequence": "MSKSSYYAPHGGHPAQTELLTDRAMFTEAYAVIPKGVMRDIVTSHLPFWDNMRMWVIARPLSGFAETFSQYIVELAPNGGSDKPEQDPNAEAVLFVVEGELSLTLQGQVHAMQPGGYAFIPPGADYKVRNTTGQHTRFHWIRKHYQKVDGVPLPEAFVTNEQDIQPLVMPDTEGRWSTTRFVDMSDMRHDMHVNIVNFEPGGVIPFAETHVMEHGLYVLEGKAVYRLNQDWVEVEAGDFMWLRAFCPQACYSGGPGRFRYLLYKDVNRHMRLTLNAPHLEHHHHHH", "soluble on expression in E. coli": "soluble"}
{"sequence": "MSKTVTIRRPSPTKTSEEPAAHQTPIFTQTAAEMLGITSLNTEAAELLEFLSREKLKEIVRLSAKWTQKSARRRMAVADVEHAIRSTRQCGGLNISSVDTLNLGIQQLQPIQGTSTGIYSFLKSSADVDVDKEDTETFIKIPRDLRVISYPLVNEGQPVQSEYTVNVDEDDGNFFEKIVPEVMTMIPEKNTPSSSTTSSLQMFRDAVKTAKIDQKVGLKPSTIEILTVEQQIFMKDIITVCMGQDDKKRHEALYTLETDAGLQVFLPHLTERICKSISANISQRCLSLIIYAGRVLRSLSHNKACDMTVTLHHVLPALLSCCVGRNMCLRPETDNHWALRDFSAKTLVGLVRDQVDKHDAGRTARRLFDFSHRIFRDTGSSFSMIYGTVHILQEFVAGPKKAAWLLTELGETNARCKSHIESGSRIGASQLSIQEAQKLNQQILKCENSIRNRYNLQQQAPGVPINRRFH", "soluble on expression in E. coli": "not soluble"}
{"sequence": "MSKVALFSHVSPDGDCIGSMLGIGLALEALGKEVAMFNPDPIPRNLSFLPGVDKITQSMPDPLPETLLFVDCADLQRVQLQREDLPADAVILNLDHHISNQNFGRINWVDSQAAASGELAYALVRRLNVELTQEIAANFYTALLTDTGSFKYANTTAKTHQIAGELMELEHHHHHH", "soluble on expression in E. coli": "not soluble"}
{"sequence": "MSKVLELAKELGAEVIQTHTSWVLLLKDVVYKIKKPVNFGFLDYSTLEKRKEMCYKEVELNRRLCPWVYIGVVPISEVKGKWVIENDENVVEYAVKMRRIPDEAILSNRLDKTTEEDLKKVAKVVADFHVRAKRVDEFGKMEVMKYNTDENFAQTEKYIGITISKEDYDFIKRKTNEFYEKHADIFEKRIKEGRIRDGHGDIRTEHVAFLEEGVCIFDCIEFNDRFRYGDVLNDMCFLSMELEYFGREYLARAYEEEYRRISKDPDFDLMLPFFKCYRAYVRGKVNSFLLDDPNLTQEEKEKAKERATKFFKLARTYAEMIK", "soluble on expression in E. coli": "not soluble"}
{"sequence": "MSKVVPIASLTPYQSKWTICARVTNKSQIRTWSNSRGEGKLFSLELVDESGEIRATAFNEQVDKFFPLIEVNKVYYFSKGTLKIANKQFTAVKNDYEMTFNNETSVMPCEDDHHLPTVQFDFTGIDDLENKSKDSLVDIIGICKSYEDATKITVRSNNREVAKRNIYLMDTSGKVVTATLWGEDADKFDGSRQPVLAIKGARVSDFGGRSLSVLSSSTIIANPDIPEAYKLRGWFDAEGQALDGVSISDLKS", "soluble on expression in E. coli": "soluble"}
{"sequence": "MSLAAHYDGLEKRTGAPYYGKKAEKVCNCAECLVFRRDVETGRLRLSNAYFCKVRLCSMCAWRRSLKIASHNKLIVEEANREYKPSWIFLTLTVRNVDGDDLKQTITDMMKAWNRLFGYKVVKTSVLGYFRALEITKNHEQNTYHPHFHVLIPVKRSYFTGKRYIKQAEWTSLWKRAMKLDYTPIVHVQRVKGKKGIDAEGIEKEVRKEMEEQKAILEISKYPVKDTDVIRGNEVTEENLDTVYYLDDALNARRLIGYGGILKEIHKELNLTDAEDGDLVRIEEDDDAVANETFEVMARWHVGIKNYIIQEGHHHHHH", "soluble on expression in E. coli": "soluble"}
{"sequence": "MSLAEIGVDAAFIDLLVETFYGRVLEHQTLGPVFDARLAGRWPEHMARMKQFWTAIAFKNGSYGGKPVQAHLGVQGMSAELFPQWLALFSVTLDDIAPSRKAHDWFMETAERIARSLTLSLFYNPAMDDPAVKREGHHHHHH", "soluble on expression in E. coli": "not soluble"}
{"sequence": "MSLAERLNNDFQFIEVGRKDPKKKLLRQRKKEFVEIYEPFKPQQSVEQAHRCLGCGNPYCEWKCPVHNFIPNWLKLVSEGNILAAAELSHQTNTLPEVCGRVCPQDRLCEGACTLNDGFGAVTIGSVEKYITDTAFAMGWRPDMSKVKPTGKRVAIIGAGPAGLGCADVLVRAGVTPVVFDKNPEIGGLLTFGIPEFKLEKTVLSNRREVFTGMGIEFRLNTEVGKDVTMEQLLAEYDAVFMGMGTYTYMKGGFPGEDLPGVHDALDFLIANVNRNLGFEKSPEDFVDMQGKKVVVLGGGDTAMDCNRTSIRQGAKAVTCAYRRDEANMPGSRKEVKNAKEEGVKFLYNRQPIAIVGEDKVEGVKVVETRLGEPDARGRRSPEPIPGSEEILPADAVVIAFGFRPSPAPWFEQHGIQLDSQGRVVAPEKGKFKHQTSNPKVFAGGDMVRGSDLVVTAIFEGRTAAEGILDYLEVEGHHHHHH", "soluble on expression in E. coli": "soluble"}
{"sequence": "MSLAESRLTKLGQELAADKEFSSLERFADLVEKLQASLEIDATTLAAILLKRQQGKRPLFYVGADPMIEAMEREKSRRRERRDDRRDGDRPARREFGGRDQENHDWDTYQLQVGRDQGVQVKDIVGALANELGLTKGSIGAIKLAQGHTFVQLPKAMSNDVSSKLRKLRIRQKEVGAVVCDFDDFRESRGGARREGGPRREGGRRPEGNREGGFRGGREGGREGGRGRGGEGRPFREGERRFERNRSGESSGSYRGERGHSRRREEAEGHHHHHH", "soluble on expression in E. coli": "not soluble"}
{"sequence": "MSLAFHEGLAAHLATGVTTTCHAWAIDRADGVVMGFTDHDRGLVFEGIDFRADSGLSALALQRGTGLAVDNSEAIGALTDAAIREADIDAGRFDGAGVRAWLVNWTDVAQRQLMFRGTIGEIRRAGGAFTAELRGLTEALNQPRGRVYQTPCGAVLGDAACGVDLGAPGYAAEAEVLGVEEGQRLVLPGLPDFEAGWFARGRLVVLDGAAEGLSGVVKRDVIAEGARHVDLWQALRAPLSVGDRIRIEAGCDKRMETCRYKFNNLLNYQGFPDIPGEDWMTVMPAQSGATGGGSRREGHHHHHH", "soluble on expression in E. coli": "soluble"}
{"sequence": "MSLAFRTLSFGIKRSQPKKKDADDLNKKKELSTITEESLRRYDELREKMIGKVESKIEKKVKKNKKKASIEILASRKRVHDSDGDSENEVEETVGDVEKRMQKLLDDIRRTNRIFTWGDHLPNIILRFSDSSMSPSLLNRLSENSIRQPSPIQMQSIPFMTERRNVLASAPTGSGKTLAFALPVIDEILELKQRADYSSSNSSKLLAVVLEPTRELAAQTYTEFLKYCANTSISAANFSGEETDIQHADILVSTPNRIVFHLDKIDTSSLRWLVVDESDRLFEVVEGQDKCFRNQLAAIYKACDAKCTRVAFFSATFSHEVEKWCKENIDEIGMVCVGERNSSNTSVKQKLTYCGTEDGKKIAIRNLLRTSFKPPALVFVQSKDRAVQLVKLLSAIDSNLKVDSINSGKSDKERDETMERFRRGEIWVLVCTELLGRGLDLSDVGLVINYDLPTSIVSYIHRVGRTGRAGKSGHAVTYFTDADMKYIKSIATVIRQSGFDVPEYLMEMKKVSRDRKKDMLKHAPKRHKIAIVKEQVIKKKKMLAKAAAEEKAKNKTETQTAEKPEKKIKKKKLIKKNNKNI", "soluble on expression in E. coli": "not soluble"}
{"sequence": "MSLAIKMLAIDLDGTLLTDSKTILPGTYKALQEAKAAGIKIVLTSGRPLSGIKGYAEELGLSGSEEYAILFNGAVVQNLDGRVLISHDLDFGDFNTLLHMQRLSDVNLDFETPDRFYTLDKRISIRLQIDGAETKNQLWIQDRSDFKKDFTFAKAVYQCDDPDQVDRLWNRLPDWFFQSYAVVRSWPEVVEVGSLAASKGYAVSELASRLGLSNSEVMIFGDQGNDRSMFEIPDFKRVAMGNAIDEIKDLADYVTDTNERDGIAKALRKLVLEGHHHHHH", "soluble on expression in E. coli": "soluble"}
{"sequence": "MSLAIQPLAYRMRPKALDEIVGQTHLVGKDKIIYRMVKAKQLSSMILYGPPGIGKTSIASAIAGSTKYAFRTLNAVTNNKKDMEVVAAEAKMSGTVILLLDEVHRLDKAKQDFLLPLLESGAIILIGATTSNPYIAINPAIRSRTQIFELKPLTVEDIMITMDRALSDKERGLGNYDVEIDEVAKKHFATASNGDVRSALNALELAVISSEPNEDGVIHITLDVAEECLQKKSLAHDKDGDAHYDVLSAFQKSVRGSDVNAALHYMGRLIEAGDLVSISRRMLVMAYEDIGLASPQAGAHTLAAIQTAEKVGFPEARIPLANAVIELCLSPKSNSAIMAIDAALADIRQGKSGEVPDHLRDGHYSGAEKLGRAIDYKYPHNYDNAWVDQQYLPDRLKNKLYYAPKFTSKFEQTIAGVYQKINENKAKKEGHHHHHH", "soluble on expression in E. coli": "soluble"}
{"sequence": "MSLAIRNVVFDVGNVIVKWAPQDIAQLTFGEGEESAFMATAVFKSEFWRDLNKGKYTEAEVKRALHQQLGLSSDTLEQLFFHIKNTQVLLPGTLQLMDDLLKAGYRLYALTDNVNEIVAYLKKQYGFWPKFTGAVVSSECGLLKPDPAIYQHLADSQRILPQESVFMDDMPANVEGARQQGFHAIQFVDAHQARVQLAQMGLHFKGQHFGEGHHHHHH", "soluble on expression in E. coli": "soluble"}
{"sequence": "MSLAKKKEIKLEDALWKSADKLRKNIDAAEYKHIVLGLIFLRYISDSFMQKYEELLKEQDDGADPEDADEYLADNIFFVPEKSRYNYIRDNAKNPKIGKMLDEAMDEIEKHNDTLKGVLPKVYAKDNLDSKCLGELIDLIGNIAFDTGKSTDVLGHVFEYFLGEFALAEGKQGGQFYTPKCVVELLVTMLEPYKGRVFDPCCGSGGMFVQSEEFVKSHQGRLDDISIYGQESNQTTYKLAKMNLAIRKIESSQVIWNNEGSFLNDAHKDLKADFIIANPPFNDSDWSGELLENDGRWKYGVPPASNANYAWIQHFLYHLSPNGGVAGFVLAKGALTSNTTNEAAIRKALIEDDLIDCIVNLPAKLFLNTGIPASLWFIRRQKLPKTVKKTLFIDARDLGTRINRRNKTLNKDDINQIANIYKAWKNGTDYEDIKGFCKSVSIDEIRELSYVLTPGRYVGLADSDDEFDFDTRFNELLAKLKSQIKTEQELSEIILKNLEKIKEGHHHHHH", "soluble on expression in E. coli": "soluble"}
